# Square brackets hold non-standard residues; d marks the D form. Ends that are not written are not given here.
# B1: MS05 (Ser-Ser-Ile-Ile-Ser-His-Phe-Arg-Trp-Gly-Lys-Pro-Val-NH2) (peptide)
# peptide: SSIISHFRWGKPV-NH2
# modifications: also: trifluoroacetate salt
# notes: Synthetic 13-residue peptide amide, obtained as the trifluoroacetate salt; also called MSO5; compound (3)
# B2: MS09 (Ser-Ser-Ile-Ile-Ser-His-dPhe-Arg-Trp-Gly-Lys-Pro-Val-NH2) (peptide)
# peptide: SSIISH[dF]RWGKPV-NH2
# modifications: N-terminus assumed
# SMILES: CC[C@H](C)[C@H](NC(=O)[C@H](CO)NC(=O)[C@@H](N)CO)C(=O)N[C@H](C(=O)N[C@@H](CO)C(=O)N[C@@H](Cc1c[nH]cn1)C(=O)N[C@H](Cc1ccccc1)C(=O)N[C@@H](CCCNC(=N)N)C(=O)N[C@@H](Cc1c[nH]c2ccccc12)C(=O)NCC(=O)N[C@@H](CCCCN)C(=O)N1CCC[C@H]1C(=O)N[C@H](C(N)=O)C(C)C)[C@@H](C)CC
# notes: Synthetic 13-residue peptide amide; also called MSO9
# What was measured:
# [1] = target: T1, human MC1-receptor (melanocortin 1 receptor) (human, UniProt Q01726 1-317); test: competition with [^125I]NDP-MSH on COS cells expressing human MC1 receptor; Ki by Cheng-Prusoff
# T1 construct: whole, on cells; Recombinant receptor on transfected cells
# Description: (§1) Expression of receptor clones. Human MC1- and MC5-receptor DNAs (Chhajlani and Wikberg 1992; Chhajlani et al., 1993), cloned into the expression vector pRc/CMV (InVitrogen Corp., USA), and human MC3- and human MC4-receptor DNAs (Gantz et al., 1993a & b), cloned into the expression vector pCMV/neo, were used. COS cells were grown and transfected with receptor clones as described (Schiöbth et al. 1995, 1996b). After transfection cells were cultivated for 48 h, detached from the Petri dishes, and used for radioligand binding as described (Schiöth et al. 1995, 1996b).
# (§2) Binding studies. […] The competition data were analyzed by fitting it to the logistic function using non-linear regression analysis. The Kᵢ-values were then calculated from the thus obtained IC50-values by using the Cheng and Prusoff equation, essentially as described by Schiöth et al. 1995, 1996b.
# human MC3-receptor [2] = target: T2, human MC3-receptor (human, UniProt P41968 1-323); test: ratio of Ki values, competition with [^125I]NDP-MSH on COS-1 cells expressing human MC receptors
# T2 construct: whole, on cells
# Description: as §1, §2
# [3] = target: T3, native mouse MC1-receptor (MSH-receptor of mouse B16 melanoma cells and of mouse RAW 264.7 cells) (mouse, UniProt Q01727 1-315); test: competition with 0.1 nM [^125I]NDP-MSH on mouse RAW 264.7 macrophage cells (native mouse MC1 receptor)
# T3 construct: whole, on cells; also called B16 melanoma cell MSH-receptor
# Description: MSH-receptor binding was done essentially as described (Xia et al., Cancer Letters, 1996, 98, 157-162), in principle according to earlier described methods (Eberle et al., J. Recept Res. 1991, 11, 311-322). In brief, the collected cells were washed, distributed into 96 well plates and sedimented onto the well bottoms by centrifugation. […] Radioactivity was counted by using a Wallac, Wizard automatic gamma counter. The competition data were analysed by law of massaction computer modelling essentially as described (Bergstrom & Wikberg, Acta Pharmacol. Toxicol. 1986, 59, 270278).
# human MC3-receptor [4] = target: T2, human MC3-receptor; test: competition with [^125I]NDP-MSH on COS cells expressing human MC3 receptor; Ki by Cheng-Prusoff
# Description: as §1, §2
# [5] = target: T1, human MC1-receptor (melanocortin 1 …); test: cell-based or functional assay
# [6] = target: T3, native mouse MC1-receptor (MSH-receptor …); test: competition with 0.2 nM [^125I]NDP-MSH on mouse B16-F1 melanoma cells (native mouse MC1 receptor)
# Description: Assays for MSH-receptor binding was done essentially as described (Xia et al., Cancer Letters, 1996, 98, 157-162), in principle according to earlier described methods (Eberle et al., J. Recept. Res. 1991, 11, 311-322). In brief, collected cells were washed with binding buffer (for composition of binding buffer see below) distributed into 96 well plates and sedimented onto the well bottoms by centrifugation. […] After incubation the plates were put on ice, centrifuged and the cells washed with 0.1 ml of ice-cold binding buffer, centrifuged and the binding buffer was sucked off. The finally sedimented and washed cells were then detached from the plates with 0.2 ml of 0.1 N NaOH. Radioactivity was counted by using a Wallac, Wizard automatic gamma counter. The competition data were analysed by law of massaction computer modelling essentially as described (Bergstrom & Wikberg, Acta Pharmacol. Toxicol. 1986, 59, 270-278).
# human MC4-receptor = target: T4, human MC4-receptor (human, UniProt P32245 1-332); test: competition with [^125I]NDP-MSH on COS cells expressing human MC4 receptor; Ki by Cheng-Prusoff
# T4 construct: whole, on cells
# Description: as §1, §2
# human MC5-receptor = target: T5, human MC5-receptor (human, UniProt P33032 1-325); test: competition with [^125I]NDP-MSH on COS cells expressing human MC5 receptor; Ki by Cheng-Prusoff
# T5 construct: whole, on cells
# Description: as §1, §2
# T3 sequence (Q01727 whole entry): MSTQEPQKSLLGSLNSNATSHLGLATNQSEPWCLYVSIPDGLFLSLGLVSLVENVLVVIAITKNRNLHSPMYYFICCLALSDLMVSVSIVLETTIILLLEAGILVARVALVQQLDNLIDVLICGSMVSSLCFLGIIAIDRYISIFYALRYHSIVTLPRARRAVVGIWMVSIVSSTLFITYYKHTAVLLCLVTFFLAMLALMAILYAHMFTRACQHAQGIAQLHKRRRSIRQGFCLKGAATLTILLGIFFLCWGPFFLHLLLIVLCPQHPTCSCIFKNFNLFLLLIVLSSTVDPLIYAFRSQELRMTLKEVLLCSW
# T1 sequence (Q01726 whole entry): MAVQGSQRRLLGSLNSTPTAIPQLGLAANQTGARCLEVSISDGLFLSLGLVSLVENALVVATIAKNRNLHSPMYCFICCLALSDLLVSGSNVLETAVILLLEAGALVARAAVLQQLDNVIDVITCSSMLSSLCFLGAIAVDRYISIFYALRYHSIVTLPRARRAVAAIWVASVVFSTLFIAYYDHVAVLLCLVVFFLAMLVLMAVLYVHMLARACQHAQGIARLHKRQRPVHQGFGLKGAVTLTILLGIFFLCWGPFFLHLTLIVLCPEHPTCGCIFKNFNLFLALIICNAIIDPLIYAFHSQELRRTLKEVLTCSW
# T2 sequence (P41968 whole entry): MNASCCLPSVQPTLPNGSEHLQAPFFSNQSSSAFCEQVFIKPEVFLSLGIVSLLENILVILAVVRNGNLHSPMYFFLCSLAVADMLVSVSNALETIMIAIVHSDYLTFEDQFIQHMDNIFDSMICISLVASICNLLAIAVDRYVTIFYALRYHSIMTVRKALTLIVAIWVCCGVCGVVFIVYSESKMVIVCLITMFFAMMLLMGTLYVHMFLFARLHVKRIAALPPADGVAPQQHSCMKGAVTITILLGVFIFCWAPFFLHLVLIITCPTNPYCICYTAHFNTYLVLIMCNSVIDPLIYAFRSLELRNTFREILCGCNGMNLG
# T4 sequence (P32245 whole entry): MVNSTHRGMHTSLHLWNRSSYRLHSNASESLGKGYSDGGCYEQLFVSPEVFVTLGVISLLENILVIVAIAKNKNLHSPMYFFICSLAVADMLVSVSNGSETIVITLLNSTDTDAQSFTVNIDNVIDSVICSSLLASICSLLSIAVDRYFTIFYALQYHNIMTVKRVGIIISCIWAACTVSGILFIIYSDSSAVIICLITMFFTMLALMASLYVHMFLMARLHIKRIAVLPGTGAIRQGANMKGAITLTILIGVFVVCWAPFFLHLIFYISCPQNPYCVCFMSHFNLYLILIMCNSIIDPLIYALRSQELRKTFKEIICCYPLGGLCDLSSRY
# T5 sequence (P33032 whole entry): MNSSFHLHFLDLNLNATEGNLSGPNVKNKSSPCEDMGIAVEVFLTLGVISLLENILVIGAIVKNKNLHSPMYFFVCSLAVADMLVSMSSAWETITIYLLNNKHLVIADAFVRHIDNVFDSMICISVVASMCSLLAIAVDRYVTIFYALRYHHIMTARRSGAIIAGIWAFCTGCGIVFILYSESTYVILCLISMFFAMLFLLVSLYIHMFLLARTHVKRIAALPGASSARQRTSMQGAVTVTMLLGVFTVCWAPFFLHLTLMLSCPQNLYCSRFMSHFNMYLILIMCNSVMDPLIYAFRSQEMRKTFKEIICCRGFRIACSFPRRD
Binder,Ki [1],fold lower affinity than for the MC1-receptor (human MC3-receptor [2]),Ki [3],Ki (human MC3-receptor [4]),"% of 10 nM α-MSH (cAMP stimulation, 10 nM) [5]",Fold stimulation of cAMP (10 nM) [5],Fold stimulation of cAMP (1 µM) [5],Ki [6],Ki (human MC4-receptor),Ki (human MC5-receptor)
B1,0.76 nM,1800 fold,1.35 nM,1360 nM,69%,4.6 fold,6.7 fold,1 nM,,
B2,0.2 nM,,,7 nM,89%,5.5 fold,7 fold,0.06 nM,40 nM,120 nM
